Consider 13 molecules from patent publication US20200369728A1, “PEPTIDOMIMETIC MACROCYCLES AND USES THEREOF” (Aileron Therapeutics, Inc., priority 2015, published 2020).

For one test, the system named is MCF-7. Nature of the test: WST-1 / MTT cell proliferation assay, MCF-7 (single agents and combinations). Format: cell-based, human. The note with it: single agent, 5 days.
Test [1] has as its target MDM2 (In-house, 41 kD) (UniProt Q00987). Nature of the test: competitive fluorescence polarization, displacement of FAM-labeled linear peptide from MDM2; grade decoded by the scale of Table 4. (In general: Polarisation of emitted light reports the rotation of a fluorescent probe.)
Test [2] addresses T1, MDMX (In-house, 40 kD) (UniProt O15151).
T1 sequence (looked up): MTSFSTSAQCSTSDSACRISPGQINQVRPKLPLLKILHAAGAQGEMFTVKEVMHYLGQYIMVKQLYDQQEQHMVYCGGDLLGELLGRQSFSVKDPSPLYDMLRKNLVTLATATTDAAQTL
As to the kind of experiment: competitive fluorescence polarization, displacement of FAM-labeled linear peptide from MDMX; grade decoded by the scale of Table 4.

Test [3] concerns the target T2, MDMX (In-house, 40 kD) (UniProt O15151 1-120, limits assumed).
T2 construct: Construct limits and any tag are unknown; also called MDM4
T2 sequence (looked up): T1 sequence (looked up)
The description is as above.

Test [4] deals with T3, MDM2 (In-house, 41 kD) (UniProt Q00987 1-125, limits assumed).
T3 construct: Construct limits and any tag are unknown; also called HDM2
Nature of the test: competitive fluorescence polarization, displacement of FAM-labeled linear peptide from MDM2; grade decoded by the scale of Table 4.

In test [5] the target is T4, MDMX (In-house, 40 kD) (UniProt O15151 1-120, limits assumed).
T4 construct: also called MDM4
T4 sequence (looked up): T1 sequence (looked up)
Nature of the test: competitive fluorescence polarization vs FAM-labeled linear peptide; column IC50 (MDMX); grade means >1000 nM.

Test [6] has as its target T4, MDMX (In-house, 40 kD). Nature of the test: competitive fluorescence polarization vs FAM-labeled linear peptide; column Ki (MDMX); grade means >1000 nM.

Values joined by “and” are separate entries in the source; they are usually repeats but may differ in a detail not shown here. Identical values can stand only once. Bridge positions count the residues as written; N and C are the ends. Square brackets hold non-standard residues; d marks the D form. R8 = C=CCCCCCC[C@@](C)(N)C(=O)O; Cba = N[C@@H](CC1CCC1)C(=O)O; S5 = C=CCCC[C@](C)(N)C(=O)O

T3 sequence (Q00987 1-125 limits assumed): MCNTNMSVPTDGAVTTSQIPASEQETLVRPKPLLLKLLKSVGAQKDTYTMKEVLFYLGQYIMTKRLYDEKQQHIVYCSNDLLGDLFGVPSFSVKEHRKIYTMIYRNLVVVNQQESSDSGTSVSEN
Sequence of MDM2 (In-house, 41 kD) (UniProt Q00987) (Q00987 1-125 limits assumed): as above
Procedure for MCF-7: All media were supplemented with 10% (v/v) fetal calf serum, 100 units penicillin and 100 μg/ml streptomycin at 37° C. and 5% CO2. Prior to dosing, MCF-7 cells were switched to serum free medium and grown at 37° C. overnight.
One day prior to assaying, cells were trypsinized, counted and seeded at pre-determined densities in 96-well plates as follows: MCF-7, 5000 cells/well/200 μl; MOLT-3, 30,000 cells/well/200 μl. […] The WST-1 variant of the MTT assay was used to measure cell viability according to the manufacturer's protocol. WST-1 is a cell-impermeable, sulfonated tetrazolium salt that can be used to examine cell viability without killing the cells.
Combination index (CI) values were calculated using the CompuSyn software. The data were expressed as log(CI).
Cells were evaluated for viability by WST-1 assay or MTT assay 3-7 days after beginning the simultaneous treatments (FIGS. 25, 30 and 31).
Cells were evaluated for viability by WST-1 assay or MTT assay 3-7 days or 120 hrs after beginning treatment (FIGS. 24A and 35). […] Cells were evaluated for viability by WST-1 assay or MTT assay 3-7 days after beginning the simultaneous treatments (FIGS. 36 and 37).

As for `CO[C@H]1C[C@@H]2CC[C@@H](C)[C@@](O)(O2)C(=O)C(=O)N2CCCC[C@H]2C(=O)O[C@H]([C@H](C)C[C@@H]2CC[C@@H](OCCO)[C@H](OC)C2)CC(=O)[C@H](C)/C=C(\C)[C@@H](O)[C@@H](OC)C(=O)[C@H](C)C[C@H](C)/C=C/C=C/C=C/1C` [everolimus, reference compound], in the test on MCF-7, the “effect on MCF-7 cell proliferation” value is “inhibited MCF-7 breast cancer cell proliferation with limited cell killing as a single agent”.

With “SP753, Ac-tawy$r5nf4CF3e$r5llr-NH2 (peptide)”, the IC50 (commonly the concentration that gives 50% inhibition) with MDM2 (In-house, 41 kD) [1] is > 10 nM and < 100 nM; with MDMX (In-house, 40 kD) [2], > 1000 nM.

For “SP758, Ac-tawya$s8f4CF3ekllr$r5a-NH2 (peptide)”, the IC50 with MDM2 (In-house, 41 kD) [1] was > 10 nM and < 100 nM; with MDMX (In-house, 40 kD) [2], > 1000 nM.

Turning to “SP755, Ac-tawyanf4CF3e$r5llr$r5a-NH2 (peptide)”, the IC50 was < 10 nM with MDM2 (In-house, 41 kD) [1] and > 1000 nM with MDMX (In-house, 40 kD) [2].

B1: SP716, Ac-LTF$r8EYWAQCba$AAA-NH2 (iso2) (peptide)
peptide: Ac-LTF[R8]EYWAQ[Cba][S5]AAA-NH2
modifications: staple 4-11; also: single isomer iso2
notes: stapled peptidomimetic macrocycle, isomer iso2
For B1, the Ki (usually the dissociation constant of the complex between target and ligand, obtained from inhibition or displacement) with MDMX (In-house, 40 kD) [3] was ≤ 10 nM; with MDM2 (In-house, 41 kD) [4], ≤ 10 nM.

B2: SP252 (peptide)
peptide: LTAAEYWAQAASAA
modifications: not fully specified; N-terminal acetyl (Ac); $r8 = alpha-Me R8-octenyl-alanine and $ = alpha-Me S5-pentenyl-alanine joined by an all-carbon crosslinker; Cba = cyclobutyl alanine; C-terminal amide (NH2)
notes: also called Ac-LTA$r8EYWAQCba$SAA-NH2
Consider B2, for which the IC50 with MDMX (In-house, 40 kD) [5] was > 1000 nM. Besides, in the test with MDMX (In-house, 40 kD) [6], the Ki was > 1000 nM.

B3: SP602, Ac-LTF$r8GlaYWAQL$AAAAAa-NH2 (peptide)
peptide: LTFAEYWAQLAAAAAAA
modifications: not fully specified; N-terminal acetyl; $r8 at 4 crosslinked by all-carbon olefin staple to $ at 11; Gla at 5 (abbreviation not defined in the filing); D-Ala (a) at C-terminus; C-terminal amide
notes: stapled peptidomimetic macrocycle
Take B3: the Ki in the test with MDMX (In-house, 40 kD) [3] was ≤ 10 nM; with MDM2 (In-house, 41 kD) [4] it was ≤ 10 nM.

B4: SP600, Ac-LTF$r8QYWAQL$AAAAAa-NH2 (peptide)
peptide: LTFAQYWAQLAAAAAAA
modifications: not fully specified; N-terminal acetyl; $r8 (alpha-Me R8-octenyl-alanine) at 4 crosslinked by all-carbon olefin staple to $ (alpha-Me S5-pentenyl-alanine) at 11; D-Ala (a) at C-terminus; C-terminal amide
notes: as for B3
As for B4, the Ki was ≤ 10 nM with MDMX (In-house, 40 kD) [3] and ≤ 10 nM with MDM2 (In-house, 41 kD) [4].

B5: SP603, Ac-LTF$r8F4gYWAQL$AAAAAa-NH2 (peptide)
peptide: LTFAFYWAQLAAAAAAA
modifications: not fully specified; N-terminal acetyl; $r8 at 4 crosslinked by all-carbon olefin staple to $ at 11; F4g at 5 (abbreviation not defined in the filing); D-Ala (a) at C-terminus; C-terminal amide
notes: as for B3
Regarding B5, the Ki with MDMX (In-house, 40 kD) [3] was ≤ 10 nM; with MDM2 (In-house, 41 kD) [4] it was ≤ 10 nM.

B6: SP615, Ac-LTF$r8EpYWAQL$AAAAAa-NH2 (peptide)
peptide: LTFAEYWAQLAAAAAAA
modifications: not fully specified; N-terminal acetyl; $r8 at 4 crosslinked by all-carbon olefin staple to $ at 11; pY at 6 (abbreviation not defined in the filing); D-Ala (a) at C-terminus; C-terminal amide
For B6, the Ki with MDM2 (In-house, 41 kD) [1] is < 10 nM; in the test with MDMX (In-house, 40 kD) [2], < 10 nM.

B7: SP250 (peptide)
peptide: ETFAEYWAQAASAA
modifications: not fully specified; N-terminal Pam cap (abbreviation not explained in the filing); $r8 = alpha-Me R8-octenyl-alanine and $ = alpha-Me S5-pentenyl-alanine joined by an all-carbon crosslinker; Cba = cyclobutyl alanine; C-terminal amide (NH2)
notes: also called Pam-ETF$r8EYWAQCba$SAA-NH2
In the case of B7, the IC50 with MDMX (In-house, 40 kD) [5] is > 1000 nM. Moreover, in the test with MDMX (In-house, 40 kD) [6], the Ki was > 1000 nM.

B8: SP712, Ac-LTF$r8HYWAQCba$SAA-NH2 (iso2) (peptide)
peptide: LTFAHYWAQAASAA
modifications: not fully specified; N-terminal acetyl; $r8 at 4 crosslinked by all-carbon olefin staple to $ at 11; Cba (cyclobutyl alanine) at 10; C-terminal amide; single isomer iso2
notes: as for B1
With B8, the Ki was ≤ 10 nM in the test with MDMX (In-house, 40 kD) [3] and ≤ 10 nM in the test with MDM2 (In-house, 41 kD) [4].

B9: SP713, Ac-LTF$r8SYWAQCba$SAA-NH2 (iso2) (peptide)
peptide: LTFASYWAQAASAA
modifications: not fully specified; N-terminal acetyl; $r8 at 4 crosslinked by all-carbon olefin staple to $ at 11; Cba (cyclobutyl alanine) at 10; C-terminal amide; single isomer iso2
notes: as for B1
Take B9: the inhibitory constant (Ki) with MDMX (In-house, 40 kD) [3] is ≤ 10 nM; in the test with MDM2 (In-house, 41 kD) [4], ≤ 10 nM.
